Experimental data from article PMC5605669.

Target: APOBEC3G, wild type (human), Q9HC16
Assay: optical tweezers (single-molecule ssDNA extension); self-association of A3G bound to force-melted lambda-DNA (ssDNA) held at 80 pN; 10 to 200 nM A3G flowed in; 10 mM HEPES, 50 mM Na+, pH 7.5, 21 °C; two-exponential fit of incubation curves, k2 = rate of oligomer formation at saturating binding
Conditions: remark: other sources report otherwise

k2 (rate of oligomer formation on ssDNA): 0.007 s⁻¹
B1: APOBEC3G, wild type, Q9HC16 1-384 (enzyme)
chain: MKPHFRNTVERMYRDTFSYNFYNRPILSRRNTVWLCYEVKTKGPSRPPLDAKIFRGQVYSELKYHPEMRFFHWFSKWRKLHRDQEYEVTWYISWSPCTKCTRDMATFLAEDPKVTLTIFVARLYYFWDPDYQEALRSLCQKRDGPRATMKIMNYDEFQHCWSKFVYSQRELFEPWNNLPKYYILLHIMLGEILRHSMDPPTFTFNFNNEPWVRGRHETYLCYEVERMHNDTWVLLNQRRGFLCNQAPHKHGFLEGRHAELCFLDVIPFWKLDLDQDYRVTCFTSWSPCFSCAQEMAKFISKNKHVSLCIFTARIYDDQGRCQEGLRTLAEAGAKISIMTYSEFKHCWDTFVDHQGCPFQPWDGLDEHSQDLSGRLRAILQNQEN
